In US20230183291A1 (Bicycle, published 2023):
Numbered stars: 1 amine (or outer) side, 2 acyl side, 3 side chain; on linkers, the order of the positions; unused ones are H or OH. Bridge positions count the residues as written; N and C are the ends. Square brackets hold non-standard residues; d marks the D form. Ends that are not written are not given here. Hse(Me) = O-methyl-homoserine, COCC[C@H](N[*:1])C(=O)[*:2]; TATA = O=C(CC[*:1])N1CN(C(=O)CC[*:2])CN(C(=O)CC[*:3])C1; Phe(3-Cl) = N[C@@H](Cc1cccc(Cl)c1)C(=O)O; Phe(2-Cl) = N[C@@H](Cc1ccccc1Cl)C(=O)O; Phe(3-F) = N[C@@H](Cc1cccc(F)c1)C(=O)O; Phe(3-Me) = Cc1cccc(C[C@H](N)C(=O)O)c1; Phe(4-Me) = Cc1ccc(C[C@H](N)C(=O)O)cc1; Phe(2-F) = N[C@@H](Cc1ccccc1F)C(=O)O; Phe(2-Me) = Cc1ccccc1C[C@H](N)C(=O)O; Hyp = O=C(O)[C@@H]1C[C@@H](O)CN1; hArg = N=C(N)NCCCC[C@H](N)C(=O)O; tBuAla = CC(C)(C)C[C@H](N)C(=O)O; Agb = N=C(N)NCC[C@H](N)C(=O)O; PYA = propargyl-acid

Experiments:
[1] = target: T1, Biotinylated Human ACE2, His, Avitag protein (ACROBiosystems, AC2-H82E6) (human, UniProt Q9BYF1 18-740); experiment: SPR single cycle kinetics, ACE2 captured on CAP chip, peptide analyte; geometric mean
T1 construct: also called biotinylated ACE2; ACE2 protein; not shown: His tag and Avitag
T1 sequence (Q9BYF1 18-740 limits assumed): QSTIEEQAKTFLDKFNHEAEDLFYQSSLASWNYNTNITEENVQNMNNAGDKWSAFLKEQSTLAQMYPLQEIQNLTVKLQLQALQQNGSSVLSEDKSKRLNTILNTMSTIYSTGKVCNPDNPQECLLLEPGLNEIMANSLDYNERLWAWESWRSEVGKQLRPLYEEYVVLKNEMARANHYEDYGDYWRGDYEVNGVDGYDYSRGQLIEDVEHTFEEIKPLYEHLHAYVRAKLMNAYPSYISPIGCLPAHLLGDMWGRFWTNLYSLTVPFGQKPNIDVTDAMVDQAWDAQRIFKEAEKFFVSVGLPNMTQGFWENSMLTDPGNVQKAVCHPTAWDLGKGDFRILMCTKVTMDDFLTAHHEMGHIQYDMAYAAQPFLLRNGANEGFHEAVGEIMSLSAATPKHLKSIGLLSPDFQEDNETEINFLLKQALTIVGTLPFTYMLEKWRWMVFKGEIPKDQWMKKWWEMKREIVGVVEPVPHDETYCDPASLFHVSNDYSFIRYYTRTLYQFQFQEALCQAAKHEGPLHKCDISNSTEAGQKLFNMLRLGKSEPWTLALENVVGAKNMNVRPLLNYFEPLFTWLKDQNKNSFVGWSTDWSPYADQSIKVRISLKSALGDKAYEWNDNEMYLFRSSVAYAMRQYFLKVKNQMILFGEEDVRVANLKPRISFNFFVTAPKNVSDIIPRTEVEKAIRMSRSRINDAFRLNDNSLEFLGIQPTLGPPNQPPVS
Description: (§1) Binding of bicyclic peptides of the invention to Biotinylated Human ACE2, His, Avitag™ protein (ACROBiosystems, AC2-H82E6) was assessed by a SCK analysis. Experiments were performed at 25° C. on a Biacore T200 (Cytiva) running Biacore T200 Control software V2.0.1 and Evaluation software V3.0 (Cytiva). HBS-EP+ (Cytiva) was used as running buffer as well as for ligand and analyte dilutions. Biotin CAPture reagent was loaded onto a Series S Sensor CAP Chip (Cytiva) followed by loading of the ACE2 protein at a flow rate of 2 μl/min. The surface was then allowed to stabilise.
(§2) SCK data was obtained using bicyclic peptides of the invention as analytes injected at a flow rate of 30 μl/min to minimise any potential mass transfer effects. […] The association phases were monitored for 100 seconds for each of the four injections of increasing concentrations of analyte and a single dissociation phase was measured for 400 seconds following the last injection of analyte. Regeneration of the sensor chip surface was conducted using the CAP Chip standard regeneration buffer (Cytiva).
(§3) The signal from the reference channel Fc1 (no ACE2 captured) was subtracted from that of Fc2, Fc3 and Fc4 to correct for bulk effect and differences in non-specific binding to a reference surface. The signal from each blank run (Fc2-ACE2 captured but no antigen) was subtracted to correct for differences in surface stability. The double referenced sensorgrams were fitted with the Langmuir (1:1) binding model (Equation 1a below) where the closeness of fit of the data to the model is evaluated using the Chi square value which describes the deviation between the experimental and fitted (observed and expected) curves (Equation 1b below).

[2] = target: T1, Biotinylated Human ACE2, His, Avitag …; experiment: SPR multiple cycle kinetics, ACE2 captured on CAP chip, peptide analyte 6.25-100 nM; geometric mean
Description: Binding of bicyclic peptides of the invention to Biotinylated Human ACE2, His, Avitag™ protein (ACROBiosystems, AC2-H82E6) was assessed by a MCK analysis. Experiments were performed at 25° C. on a Biacore T200 (Cytiva) running Biacore T200 Control software V2.0.1 and Evaluation software V3.0 (Cytiva). HBS-EP+(Cytiva) was used as running buffer as well as for ligand and analyte dilutions. Biotin CAPture reagent was loaded onto a Series S Sensor CAP Chip (Cytiva) followed by loading of biotinylated ACE2 at a flow rate of 2 μl/min. The surface was then allowed to stabilise.
MCK data was obtained using bicyclic peptides of the invention as analytes injected at a flow rate of 30 μl/min to minimise any potential mass transfer effects. A five point, two-fold dilution range from 6.25 nM to 100 nM of analyte was prepared in running buffer. For each concentration, the association phases were monitored for 250 seconds and the dissociation phase was measured for 450 seconds. Regeneration of the sensor chip surface was conducted between cycles using the CAP Chip standard regeneration buffer (Cytiva). Multiple repeats of a blank and of Bicycle were programmed into the kinetic run in order to check the stability of both the surface and analyte over the kinetic cycles.
as §3, with “above)” for “below)”, “1 b above).” for “1b below).”

[3] = target: T1, Biotinylated Human ACE2, His, Avitag …; experiment: SPR single cycle kinetics, ACE2 captured on CAP chip, peptide analyte; geometric mean; * Rmax set to 10
Description: as §1, §2, §3

Row | Binder | Kd [1] | Kd [2] | Kd [3]
1 | ACPSQYKCWRGKCA (linker 2-8-13 via TATA, bicyclic peptide, TATA scaffold) [BCY15427] | 150 nM |  | 
2 | ACNAVLCSWARANSFCA (linker 2-7-16 via TATA, bicyclic peptide, TATA scaffold) [BCY15429] | 3.4 nM | 4 nM | 
3 | ACNAVLCSWARANSYCA (linker 2-7-16 via TATA, bicyclic peptide, TATA scaffold) [BCY17690] | 4.8 nM |  | 
4 | ACAEIYKCWRGRCA (linker 2-8-13 via TATA, bicyclic peptide, TATA scaffold) [BCY17152] | 120 nM |  | 
5 | ACDTLYKCWRGRCA (linker 2-8-13 via TATA, bicyclic peptide, TATA scaffold) [BCY17153] | 91.7 nM |  | 
6 | ACESLYKCWRGRCA (linker 2-8-13 via TATA, bicyclic peptide, TATA scaffold) [BCY17154] | 104 nM |  | 
7 | ACNTLYKCWRGKCA (linker 2-8-13 via TATA, bicyclic peptide, TATA scaffold) [BCY17155] | 107 nM |  | 
8 | ACTELYKCWRGRCA (linker 2-8-13 via TATA, bicyclic peptide, TATA scaffold) [BCY17156] | 151 nM |  | 
9 | ACNKVLCSWASRNSMCA (linker 2-7-16 via TATA, bicyclic peptide, TATA scaffold) [BCY17157] | 11.8 nM |  | 
10 | ACNQVLCRWAQVNSMCA (linker 2-7-16 via TATA, bicyclic peptide, TATA scaffold) [BCY17158] | 4 nM | 8.1 nM | 
11 | ACNRVLCAWATANSMCA (linker 2-7-16 via TATA, bicyclic peptide, TATA scaffold) [BCY17159] | 4.7 nM |  | 
12 | ACNTVLCNWARYNSLCA (linker 2-7-16 via TATA, bicyclic peptide, TATA scaffold) [BCY17160] | 4.2 nM | 4.8 nM | 
13 | ACNTVLCAWARANSYCA (linker 2-7-16 via TATA, bicyclic peptide, TATA scaffold) [BCY17161] | 4.2 nM | 4.4 nM | 
14 | ACNTVLCGWARANSLCA (linker 2-7-16 via TATA, bicyclic peptide, TATA scaffold) [BCY17162] | 5.7 nM | 11.4 nM | 
15 | ACNTVLCAWAMNNSMCA (linker 2-7-16 via TATA, bicyclic peptide, TATA scaffold) [BCY17163] | 36.8 nM |  | 
16 | ACNTVLCAWATQNSLCA (linker 2-7-16 via TATA, bicyclic peptide, TATA scaffold) [BCY17164] | 14.8 nM |  | 
17 | ACSPVLCAWATRNSLCA (linker 2-7-16 via TATA, bicyclic peptide, TATA scaffold) [BCY17165] | 12.5 nM |  | 
18 | ACNAV[tBuAla]CSWARANSFCA (linker 2-7-16 via TATA, bicyclic peptide, TATA scaffold) [BCY17333] | 5 nM |  | 
19 | ACNAVLCSWARANS[Phe(2-Me)]CA (linker 2-7-16 via TATA, bicyclic peptide, TATA scaffold) [BCY17335] | 2.5 nM |  | 
20 | ACNAVLCSWARANS[Phe(3-Me)]CA (linker 2-7-16 via TATA, bicyclic peptide, TATA scaffold) [BCY17336] | 8.3 nM |  | 

Row | Binder | Kd [1] | Kd [2] | Kd [3]
21 | ACNAVLCSWARANS[Phe(4-Me)]CA (linker 2-7-16 via TATA, bicyclic peptide, TATA scaffold) [BCY17337] | 5 nM |  | 
22 | ACNAVLCSWARANS[Phe(2-Cl)]CA (linker 2-7-16 via TATA, bicyclic peptide, TATA scaffold) [BCY17338] | 3.2 nM |  | 
23 | ACNAVLCSWARANS[Phe(3-Cl)]CA (linker 2-7-16 via TATA, bicyclic peptide, TATA scaffold) [BCY17339] | 4.7 nM |  | 
24 | ACNAVLCSWARANS[Phe(2-F)]CA (linker 2-7-16 via TATA, bicyclic peptide, TATA scaffold) [BCY17341] | 3.1 nM |  | 
25 | ACNAVLCSWARANS[Phe(3-F)]CA (linker 2-7-16 via TATA, bicyclic peptide, TATA scaffold) [BCY17342] | 3.3 nM |  | 
26 | Ac-CNAVLCSWARANSFC (linker 1-6-15 via TATA, bicyclic peptide, TATA scaffold) [BCY17663] | 5.3 nM |  | 
27 | CNAVLCSWARANSFC (linker 1-6-15 via TATA, bicyclic peptide without terminal additions) [BCY17688] | 2.7 nM |  | 
28 | ACNAVLCSWA[Agb]ANSFCA (linker 2-7-16 via TATA, bicyclic peptide, TATA scaffold) [BCY17689] | 4.7 nM |  | 
29 | Ac-ACNAVLCSWARANSFCA (linker 2-7-16 via TATA, bicyclic peptide, TATA scaffold) [BCY17691] | 3.9 nM |  | 
30 | Ac-CN[Hyp]VLCSWA[hArg]ANSFC (linker 1-6-15 via TATA, bicyclic peptide, TATA scaffold) [BCY18210] |  | 10.6 nM | 21.1 nM
31 | Ac-CNAVLCSWA[hArg]ANSFC (linker 1-6-15 via TATA, bicyclic peptide, TATA scaffold) [BCY18259] |  | 13 nM | 23 nM
32 | Ac-CNTVLCSWA[hArg]ANSFC (linker 1-6-15 via TATA, bicyclic peptide, TATA scaffold) [BCY18657] | 69.3 nM |  | 
33 | Ac-CNSVLCSWA[hArg]ANSFC (linker 1-6-15 via TATA, bicyclic peptide, TATA scaffold) [BCY18658] | 6.7 nM | 13.5 nM | 
34 | Ac-CNAVLCSWA[hArg]TNSFC (linker 1-6-15 via TATA, bicyclic peptide, TATA scaffold) [BCY19025] |  | 70.7 nM | 
35 | Ac-CNAVLCSWA[hArg]SNSFC (linker 1-6-15 via TATA, bicyclic peptide, TATA scaffold) [BCY19026] |  | 45.2 nM | 
36 | Ac-CNRVLCAWATANS[Hse(Me)]CK(PYA) (linker 1-6-15 via TATA, bicyclic peptide, TATA scaffold) [BCY18349] |  |  | 59.6 nM
37 | Ac-CN[hArg]VLCSWA[hArg]ANSFC (linker 1-6-15 via TATA, bicyclic peptide, TATA scaffold) [BCY18350] | 8.3 nM |  | 
38 | Ac-CNTVLCGWA[hArg]ANSLCAK(PYA) (linker 1-6-15 via TATA, bicyclic peptide, TATA scaffold) [BCY18549] |  | 42.9 nM | 63.9 nM
39 | Ac-CNTVLCGWARANSLCK(PYA) (linker 1-6-15 via TATA, bicyclic peptide, TATA scaffold) [BCY18550] |  | 15.6 nM | 9.7 nM
40 | Ac-CNAVLCSWA[hArg]ANSFCK(PYA) (linker 1-6-15 via TATA, bicyclic peptide, TATA scaffold) [BCY18784] | 25.3 nM |  | 
